Data published in the supplement of paper PMC12764529.
± gives the half width of the 95% confidence interval.

How the values were obtained:
[1] = folding stability dG unfold from trypsin proteolysis; higher = more stable
How it was run: (§1)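 Sequencing followed digestion of designed mini-proteins with trypsin and chymotrypsin, each at 11 concentrations in threefold dilutions together with a no-protease condition. The mini-proteins were under 80 residues, had no cysteine, sat in a PA-tagged cDNA display construct, and were kept only if AlphaFold2 dimer inter-PAE was above 15. From the counts, Bayesian fitting gave K50, and unfolding free energy was derived against a sequence-predicted unfolded-state K50 and a shared folded-state K50, per protease or combined.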

[2] = folding stability dG unfold from chymotrypsin proteolysis; higher = more stable
How it was run: as §1

[3] = folding stability dG unfold (combined trypsin and chymotrypsin); higher = more stable
How it was run: as §1

Sequence | folding stability dG unfold [1] [kcal/mol] | folding stability dG unfold [2] [kcal/mol] | folding stability dG unfold [3] [kcal/mol]
SAGGSAGGSAGGLSPGDEIKIRIMIFYRDPGSGNMRPIQPFPITIKIEPPPPKPKDPNNNSAGGSAGGSAGG [r7_522_TrROS] | 2.27 ± 0.1 | 3.82 ± 0.085 | 3.08 ± 0.12
SAGGSAGGSAGGLTFRLPDGTRVRVRVELNEDGELRITVEVEPLPPPPPKVEFYSEEELKSAGGSAGGSAGG [r7_660_TrROS_Hall] | 2.72 ± 0.076 | 3.06 ± 0.08 | 2.92 ± 0.12
SAGGSAGGSAGGLWLTFNFRLTFFNPDGQAMEIEIPIEIRIPPPPVTVPDPDGEEYKYDSAGGSAGGSAGGS [r10_330_TrROS] | 2.39 ± 0.07 | 3 ± 0.069 | 2.87 ± 0.18
SAGGSAGGSAGGMAENLSPEQLRELAKELGLSEEDLEPGQVVRFRLPNGEVIEVRVEDESAGGSAGGSAGGS [r10_623_TrROS_Hall] | 1.29 ± 0.033 | 0.372 ± 0.13 | 0.913 ± 0.067
SAGGSAGGSAGGMEKLSETVTETVEVTLTSGDKTYTFTVTTTTVVLPDGTVETLEVTLQPSAGGSAGGSAGG [r11_95_JUSTAS] | 2.05 ± 0.1 | 3.42 ± 0.12 | 2.81 ± 0.14
SAGGSAGGSAGGMEVYRNPETGTLVFLFELEDGSYVAVTINPDGSVEVRVFDKDGRWVPSAGGSAGGSAGGS [r10_299_TrROS_Hall] | 2.61 ± 0.064 | 3.507 ± 0.027 | 3.03 ± 0.081
SAGGSAGGSAGGMGPPPIETIVIEKPLSEEEYEALKKAYPDKKVTVSEIPGTPNKIATIESAGGSAGGSAGG [r17_254_JUSTAS] | 0.363 ± 0.042 | -0.192 ± 0.098 | 0.0243 ± 0.19
SAGGSAGGSAGGMIAVLTYKDGTVRDFGPTASLEEILSIPADEIVRIEVRPVLPELGDLLSAGGSAGGSAGG [r7_190_TrMRF] | 0.59 ± 0.018 | -0.859 ± 0.31 | 0.251 ± 0.07
SAGGSAGGSAGGMIIIIPTPKGTVALVIDENSDKPTLIEASPDEIPDLIEKGAKEVIILPSAGGSAGGSAGG [r7_266_TrMRF] | 0.363 ± 0.072 | 1.22 ± 0.052 | 0.932 ± 0.13
SAGGSAGGSAGGMIIKINGKYYKIKKIEKNPNGKYTITTENGKKYEFKNVKIFSEEELKSAGGSAGGSAGGS [r10_1151_TrROS_Hall] | 3.05 ± 0.18 | 4.19 ± 0.061 | 3.86 ± 0.18
SAGGSAGGSAGGMIKTKDGKVLEFKSLEEALAALKELGVDEVEIEELEPEGVVKVKVKPSAGGSAGGSAGGS [r10_1191_TrROS_Hall] | 0.301 ± 0.03 | 1.34 ± 0.039 | 1.11 ± 0.11
SAGGSAGGSAGGMIKVTFKIPGKNETIEIDFDSEEELEEKFKELREKLGYNIEVVEIEESAGGSAGGSAGGS [r10_1087_JUSTAS] | 2.19 ± 0.19 | 2.19 ± 0.12 | 1.92 ± 0.2
SAGGSAGGSAGGMILVQDKKTKKWYEIKPGESLENLEFPEGVKEVRIYVFNEDGELVELDSAGGSAGGSAGG [r7_763_TrROS_Hall] | 1.39 ± 0.043 | 2.45 ± 0.027 | 2.28 ± 0.12
SAGGSAGGSAGGMITTGITVSATDPNSSTSYTVTVPSSVPSSTFPANTAVGSAALAKLLASAGGSAGGSAGG [r17_412_JUSTAS] | -0.554 ± 0.19 | -0.225 ± 0.25 | -0.449 ± 0.21
SAGGSAGGSAGGMITVEVEVPGDEAEAEARREAIAEELAAEGHEDVPITVTFVSPEEAASAGGSAGGSAGGS [r10_1099_JUSTAS] | 1.28 ± 0.11 | 0.388 ± 0.047 | 0.64 ± 0.36
SAGGSAGGSAGGMIVIEVERKEGEEERKEVIVIPNDPEKAEAEAKKLAEEGPVEKVTIKKESAGGSAGGSAG [r3_310_JUSTAS] | 0.243 ± 0.11 | 1.3 ± 0.066 | 1.04 ± 0.28
SAGGSAGGSAGGMIVTLPKTGEVLLVPEEEIEAFLAALPESFPKEDVEVYEYSPEEEPLSAGGSAGGSAGGS [r10_13_JUSTAS] | 0.566 ± 0.044 | 0.0515 ± 0.17 | 0.253 ± 0.13
SAGGSAGGSAGGMKIIKLEDDYYLIPFDSPEQLKAYTDIFEKLGLPVVVLPDGRLLVKGSAGGSAGGSAGGS [r10_1027_TrMRF] | 2.39 ± 0.053 | 2.52 ± 0.026 | 2.49 ± 0.054
SAGGSAGGSAGGMKIPPSLLTEVKESIVPTPEGSTKITTVTAKVPGTGEVVTYTLTTPVASAGGSAGGSAGG [r7_348_JUSTAS] | 0.0354 ± 0.032 | -0.744 ± 0.31 | -0.242 ± 0.11
SAGGSAGGSAGGMKKKKLKEGVEIEFFREGDYLYVTTKIPETGKEETKKVKKVPKDIPLSAGGSAGGSAGGS [r10_240_JUSTAS] | -0.245 ± 0.45 | 0.298 ± 0.14 | 0.22 ± 0.23
SAGGSAGGSAGGMKLVITLKDPNSDKTYTVTLPIEDKSPEEVIQEIEEKLGVEVVEVKPESAGGSAGGSAGG [r7_590_JUSTAS] | 2.06 ± 0.083 | 2.04 ± 0.021 | 2.02 ± 0.06

Sequence | folding stability dG unfold [1] [kcal/mol] | folding stability dG unfold [2] [kcal/mol] | folding stability dG unfold [3] [kcal/mol]
SAGGSAGGSAGGMKPGEKPEVEYRVRIYDADTGEWREVPLEDLKKLKLPPGAVVEIEKVSAGGSAGGSAGGS [r10_1121_TrROS_Hall] | 2.01 ± 0.14 | 3.42 ± 0.067 | 2.93 ± 0.15
SAGGSAGGSAGGMKVIKLPGLTVEIEPGYSPSEPVKITITDPKTGKVTEYEIKIPPEELPSAGGSAGGSAGG [r7_834_JUSTAS] | 0.915 ± 0.052 | 1.26 ± 0.021 | 1.13 ± 0.042
SAGGSAGGSAGGMKVYRIGPDLYLVENEDGSLRIYNRDTGKVFTFKPGETITITIPPELLSAGGSAGGSAGG [r7_299_TrROS_Hall] | 2.18 ± 0.075 | 2.79 ± 0.059 | 2.7 ± 0.11
SAGGSAGGSAGGMLSTNVTRTITLTYFDPNGSKPIETQTVTVTTFVEIFQEPVGNWTAASAGGSAGGSAGGS [r10_50_JUSTAS] | 0.789 ± 0.08 | 0.759 ± 0.21 | 0.786 ± 0.15
SAGGSAGGSAGGMLTIVEVLSKDPEKPVYTVKVKFPDGSEKTLEVPPELLSNPEKEIVLESAGGSAGGSAGG [r7_117_JUSTAS] | 1.23 ± 0.072 | 1.44 ± 0.07 | 1.47 ± 0.12
SAGGSAGGSAGGMLVDPSTNTVTINLPPNTTLTFNYPDSTLTVTVPANETLTVTFPLTSSAGGSAGGSAGGS [r10_464_JUSTAS] | 2.19 ± 0.075 | 0.947 ± 0.049 | 1.67 ± 0.1
SAGGSAGGSAGGMNIKVLKEFEFETEDGVPVRYLLVDAGGEEGETVVIKETPTSIEIIPFSAGGSAGGSAGG [r7_960_TrMRF] | 0.856 ± 0.025 | 0.511 ± 0.17 | 0.694 ± 0.11
SAGGSAGGSAGGMNPIVIKKTYPVKSGSFTVTLPEGVTPVSFEKDPNSDTITIEVLVEPSAGGSAGGSAGGS [r10_906_JUSTAS] | 0.63 ± 0.067 | -0.713 ± 0.37 | 0.0999 ± 0.3
SAGGSAGGSAGGMPGVTTTSTTTTTLPNGTVVTTTTTTVLLPTGTTVTVTVTTTTSATTSSAGGSAGGSAGG [r11_274_JUSTAS] | 2.77 ± 0.11 | 2.61 ± 0.088 | 2.68 ± 0.12
SAGGSAGGSAGGMPIPIIVIPTPPNGNFTPEQIKEVAEKLNDPVVLTEESDNSRVILVGSAGGSAGGSAGGS [r10_642_TrMRF] | 0.928 ± 0.029 | -0.135 ± 0.08 | 0.519 ± 0.16
SAGGSAGGSAGGMPVLVNIELPIPGTNETLTLEVEAEGPGGEEVEKEAQETAEKVLEESSAGGSAGGSAGGS [r10_863_JUSTAS] | 1.58 ± 0.1 | 1.79 ± 0.068 | 1.72 ± 0.11
SAGGSAGGSAGGMREIAREIWEEYNNPVTIRIRNPNGKHEPFRFPDDPEDIPGWDIDDITSAGGSAGGSAGG [r7_998_TrROS] | -0.831 ± 0.3 | 0.79 ± 0.098 | 0.463 ± 0.082
SAGGSAGGSAGGMREVIRRPEASGEVTVEPLPEDERRPVDFGSDGVVLWREGDEVVVEPSAGGSAGGSAGGS [r10_817_JUSTAS] | 0.00105 ± 0.087 | 0.72 ± 0.043 | 0.562 ± 0.08
SAGGSAGGSAGGMRKYLVTLKPPNGPVTRYILPSEEEIKEFVAPLNAEYEVTPLSEDVPPSAGGSAGGSAGG [r7_456_JUSTAS] | 0.0557 ± 0.1 | 0.72 ± 0.072 | 0.515 ± 0.088
SAGGSAGGSAGGMSFPVSSVEYRKDPNSDTPLVFITLPDGTVIIERLDTGTSSVVPVSQLSAGGSAGGSAGG [r11_922_JUSTAS] | 1.12 ± 0.037 | 1.3 ± 0.15 | 1.21 ± 0.067
SAGGSAGGSAGGMSITFTAPDGSKITATIDPDGNVLVEVHLGDKPYYVKGPVETLLKNAPSAGGSAGGSAGG [r7_178_TrMRF] | 0.325 ± 0.027 | 0.904 ± 0.1 | 0.719 ± 0.07
SAGGSAGGSAGGMSITISVPEKTATIEIPGLGKTITIPPGETITVPIPNVPPFKITTEPPSAGGSAGGSAGG [r11_939_JUSTAS] | 0.76 ± 0.059 | 0.854 ± 0.044 | 0.732 ± 0.086
SAGGSAGGSAGGMTIVLNIPKEELTEEEIKKLKESLPSDNPVKIIVKPKPPRKFYPKSTISAGGSAGGSAGG [r7_979_JUSTAS] | 0.605 ± 0.024 | 1.12 ± 0.048 | 0.925 ± 0.065
SAGGSAGGSAGGMTLEELKNLKPGEEVEIEIEVYDKNGKKVSKYRIRIYNDKIEIEKLPSAGGSAGGSAGGS [r10_394_TrROS_Hall] | 2.4 ± 0.057 | 2.991 ± 0.026 | 2.71 ± 0.092
SAGGSAGGSAGGMTLEIEINGLKVRIEFDEETKELRIEVEPAPPPVVVYEKEKLEEEEESAGGSAGGSAGGS [r10_724_TrROS_Hall] | 1.56 ± 0.078 | 1.52 ± 0.05 | 1.46 ± 0.18
SAGGSAGGSAGGMTPEEKIEALIKATPPLTVKTSGPGVSYEVEDLEKLKKLNVTISSVLGSAGGSAGGSAGG [r7_504_JUSTAS] | -1.3 ± 0.67 | -0.683 ± 0.24 | -0.637 ± 0.22
